Patent US20090298079A1 (METHERESIS TRANSLATIONAL RESEARCH, published 2009)

What was measured:
Sema-PSI = target: T1, Sema-PSI (UniProt P08581 25-562); test: ELISA, receptor in solid phase, MYC-tagged ligand in liquid phase, anti-MYC detection
T1 construct: range 25-562; also called Sema-PSI FLAG.his; SP
Experimental: All engineered receptors and factors were collected from the conditioned medium of lentiviral vector-transduced […] human melanoma cells in the absence of serum. Factor purification was performed by immobilized-metal affinity chromatography as previously described in Michieli P. et al. (2002) Nat Biotechnol. 20(5), 488-495. Conversion of pro-HGF into active HGF was performed by incubating purified pro-HGF (maximal concentration 100 ng/μl) with 2-10% FBS (Sigma, St. Louis, Mo.) at 37° C. for 24 hours. Factor conversion was analyzed by Western blotting using anti-HGF antibodies (R&D Systems, Minneapolis, Minn.). […] Binding of engineered ligands to soluble receptors was measured by ELISA using FLAG-tagged soluble receptors in solid phase and MYC-tagged engineered ligands in liquid phase. […] Binding data were analyzed and fit using Prism software (Graph Pad Software, San Diego, Calif.).
(§1) To determine the affinity of each Met module for pro-HGF, HGF-α, HGF NK1 and HGF-β and to compare it with that for active HGF, engineered receptors were immobilized in solid phase and exposed to increasing concentrations of MYC-tagged ligands. […] Non-specific binding was determined using the kringle-containing protein angiostatin (AS) also tagged with a MYC epitope—in liquid phase. […] Binding of HGF-β to decoy Met (or to any other Met domain) was too low to be detected in this kind of assay. […]

Decoy Met = target: T2, Decoy Met (UniProt P08581 25-932); test: ELISA, Decoy Met in solid phase, MYC-tagged ligand in liquid phase, anti-MYC detection
T2 construct: range 25-932; Soluble FLAG- and His-tagged receptor, purified from conditioned medium of transduced cells; also called decoy met FLAG.his; DM
Experimental: (§2) Factor purification was performed by immobilized-metal affinity chromatography as previously described in Michieli P. et al. (2002) Nat Biotechnol. 20(5), 488-495. Conversion of pro-HGF into active HGF was performed by incubating purified pro-HGF (maximal concentration 100 ng/μl) with 2-10% FBS (Sigma, St. Louis, Mo.) at 37° C. for 24 hours. Factor conversion was analyzed by Western blotting using anti-HGF antibodies (R&D Systems, Minneapolis, Minn.). Uncleavable HGF subjected to the same incubation with FBS was used as pro-HGF in all assays that compared active HGF with unprocessed HGF. Binding of engineered ligands to soluble receptors was measured by ELISA using FLAG-tagged soluble receptors in solid phase and MYC-tagged engineered ligands in liquid phase. […] Binding data were analyzed and fit using Prism software (Graph Pad Software, San Diego, Calif.).
as §1

IPT = target: T3, IPT (UniProt P08581 563-932); test: ELISA, IPT in solid phase, MYC-tagged ligand in liquid phase, anti-MYC detection
T3 construct: range 563-932; also called IPT FLAG.his; soluble IPT
Experimental: as §2, §1

Binder | binding result (Sema-PSI) | fold reduced affinity compared to active HGF (Decoy Met) [fold] | fold less tightly than active HGF (IPT) [fold]
HGF NK1 (ligand, range 32-205; also called HGF-NK1 MYC his; monomeric NK1) QRKRRNTIHEFKKSAKTTLIKIDPALKIKTKKVNTADQCANRCTRNKGLPFTCKAFVFDKARKQCLWFPFNSMSSGVKKEFGHEFDLYENKDYIRNCIIGKGRSYKGTVSITKSGIKCQPWSSMIPHEHSFLPSSYRGKDLQENYCRNPRGEEGGPWCFTSNPEVRYEVCDIPQEQKLISEEDLNHHHHHHH | no binding | 10 | 10
HGF-α (ligand, range 32-473; also called HGF α-chain; HGF-α MYC his) QRKRRNTIHEFKKSAKTTLIKIDPALKIKTKKVNTADQCANRCTRNKGLPFTCKAFVFDKARKQCLWFPFNSMSSGVKKEFGHEFDLYENKDYIRNCIIGKGRSYKGTVSITKSGIKCQPWSSMIPHEHSFLPSSYRGKDLQENYCRNPRGEEGGPWCFTSNPEVRYEVCDIPQCSEVECMTCNGESYRGLMDHTESGKICQRWDHQTPHRHKFLPERYPDKGFDDNYCRNPDGQPRPWCYTLDPHTRWEYCAIKTCADNTMNDTDVPLETTECIQGQGEGYRGTVNTIWNGIPCQRWDSQYPHEHDMTPENFKCKDLRENYCRNPDGSESPWCFTTDPNIRVGYCSQIPNCDMSHGQDCYRGNGKNYMGNLSQTRSGLTCSMWDKNMEDLHRHIFWEPDASKLNENYCRNPDDDAHGPWCYTGNPLIPWDYCPISRCEGDTEQKLISEEDLNHHHHHHH | no binding | 4 | –
